Consider two molecules from PMC11833123, “A bipartite bacterial virulence factor targets the complement system and neutrophil activation” (The EMBO Journal, 2025).

For experiment [1], the target named is C0362, C-terminal part of TDE0362 with the Mac-like domain (205–647 aa) (Treponema denticola ATCC 35405) (UniProt Q73QT1). The experiment can be described thus: SEC; dimer fraction noted during SEC of purified C0362; column and buffer are not tied to this remark. (SEC sorts molecules by how far they enter the pores of the column.)
Experiment [2] has as its target T1, GST-CXCR1 (recombinant, from E. coli) (UniProt P25024 1-350).
T1 construct: CXCR1 (Uniport entry P25024), full length, gene codon optimized and synthesized, cloned into pGEX-6P-1; also called CXCR1 from E.coli; recombinant GST-CXCR1; source: E. coli BL21, purified (Glutathione Agarose with 5% sarkosyl in the lysis buffer, SEC); not shown: GST, N-terminal, kept
T1 sequence: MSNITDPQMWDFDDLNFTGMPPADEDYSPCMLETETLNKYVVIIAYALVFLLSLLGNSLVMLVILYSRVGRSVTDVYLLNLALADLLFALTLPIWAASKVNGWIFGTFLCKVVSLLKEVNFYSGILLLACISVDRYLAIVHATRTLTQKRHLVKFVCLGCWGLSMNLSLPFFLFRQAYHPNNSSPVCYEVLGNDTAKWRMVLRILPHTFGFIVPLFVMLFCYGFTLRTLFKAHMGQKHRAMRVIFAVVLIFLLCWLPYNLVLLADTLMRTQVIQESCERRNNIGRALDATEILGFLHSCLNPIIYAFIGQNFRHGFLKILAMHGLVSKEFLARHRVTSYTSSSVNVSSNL
As to the kind of experiment: SPR; GST-CXCR1 coupled (EDC/NHS) to CM5 sensor chips, N0362 flowed over (0.05 or 0.1 µM to 3 µM), 25 °C, dPBS with 0.01% Tween 20, Reichert SR7500DC; kinetics globally fit to a one to two binding model, affinity model for saturation. The following applies: both partners purified.

Molecule “C0362, C-terminal part of TDE0362 with the Mac-like domain (205–647 aa) (from UniProt Q73QT1 205-647) (enzyme)” had a fraction of the total material that was dimer in experiment [1] of 10%.

B1: N0362, the N-terminus of TDE0362 (23–204 aa) (domain or fragment)
chain: KNNLLTKTEKEKSGEIPVKNIILSPNKSEFSLEKNTAQTITVKIIPEKATNKALIYSSKHGDIASIDNTGLITAKKEGRTIITIEASNGVKKTIDVIVTPEPIPVTNIEFEEEPPAFLFIGDVYIFKAKAKPDEATNRKLEYTTMTSDVISVTNTELGTMKATKEGNAAITIRSASTPSVAK
modifications: Alexa Fluor 488 label (only in the immunofluorescence on cells)
notes: TDE0362 of Treponema denticola ATCC 35405 (647 aa pre-protein), residues 23-204 with both bacterial Ig-like domains Big_1 and Big_2; Cloned in pET100/D-TOPO, which encodes the N-terminal 6xHis-tag; The same construct was used unlabelled (pull-down, ELISA, SPR) and labelled with Alexa Fluor 488 (cells); also called recombinant N0362; His-tagged N0362; source: E. coli BL21-CodonPlus (DE3)-RIL, …
Turning to B1, in experiment [2], the Kd amounted to 264 ± 2.3 nM, the koff came out at 0.000857 s⁻¹ and the kon is 4950 M⁻¹ s⁻¹.

Broadly, the Kd is a measure of binding affinity in units of concentration. Broadly, the koff is the rate constant with which the complex falls apart. By kon is commonly meant the rate constant with which the complex forms.
